T1: GST-Kxd1 (S. cerevisiae, UniProt P53158 1-218)
T1 sequence (looked up): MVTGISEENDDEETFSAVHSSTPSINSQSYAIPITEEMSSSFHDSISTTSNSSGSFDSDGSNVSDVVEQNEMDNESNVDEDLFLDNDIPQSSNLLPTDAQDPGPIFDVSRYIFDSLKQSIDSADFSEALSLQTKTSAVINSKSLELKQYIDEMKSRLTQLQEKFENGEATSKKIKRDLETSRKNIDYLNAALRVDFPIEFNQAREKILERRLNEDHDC

B1: Vab2-GST (natural protein)
chain: MVADLTKGILKWKSRIEFDAVGSSSYYEELKGLPPLASHKKLTQAAIFNSTKYELLQVKKDILSIYEVVSRDIDEERNQMQQIELQLKKSLKKVEHSYKNVLKQRASTNCINGNDRLLANAEKKIGSLNEELACVNDIVSDIVNNLTALNANLPKKAQLLKDDSINVAHYPLLFDFLHKSCPKSIIATSEASIHENASPSPLLEHDELPAESINSFYGENELQSDSLAPLQTHDDNISSCKKILPPKFNTTSGPSIETNFENISADGLTYTKCSLKNSISLT
B2: HS-Cnl1 (natural protein, S. cerevisiae, UniProt Q06333 1-122, looked up)
chain: MQDNSSHSRESASAGDDPLGIDKLTVDYDYLLYKMRDYVQSIQLDTTELCKKQNEVMVNGIIENTIDKNIAKFKELLEKCDTLENHYEMLNQLAIITDTFKERIAEAVNNYNSLKKGASKSK
B3: HS-Bli1 (natural protein, S. cerevisiae, UniProt P35727 1-113, looked up)
chain: MGEQNKLYYDVEKLVNSLQESFDLDCAQSVSLFTSKSRSNEAWLEELENKFKLKDDVELDDVENLRAEIDMKLNMLEDKVSYYERLYKELEEFQNEIKIKTVVNNRRQSRTPK
B4: GST-Bli1 (natural protein, S. cerevisiae, UniProt P35727 1-113, looked up)
chain: B3 chain

Tests used:
Assay in all cases: pull-down
HS-Snn1 = HS-Snn1 (S. cerevisiae, UniProt P48232 1-102)
GST-Kxd1 = target: T1, GST-Kxd1
GST-Snn1 = GST-Snn1 (S. cerevisiae, UniProt P48232 1-102)
Vab2-GST = target: B1
HS-Cnl1 = target: B2

B1
binding result (HS-Snn1): binds

B2
binding result (GST-Kxd1): binds

B3
binding result (GST-Snn1): binds | binding result (Vab2-GST): binds

B4
binding result (HS-Cnl1): binds

Reference: article PMC4571306 (Molecular Biology of the Cell, 2015)
